{
  "source": "patent US20070048219A1",
  "biological_target": "IL-8 receptors on human neutrophils",
  "test": "unlabeled IL-8 displaces 125I-IL-8 from IL-8 receptors on human neutrophils; value in the legend box without a column head, IC50",
  "data": [
    {"substance": "recombinant human IL-8, (ser-IL-8)72 (from UniProt P10145 28-99) (ligand)", "values": [
      {"measurement": "IC50", "result": 78, "unit": "pM"}
    ]}
  ]
}
